Measured values taken from patent US20260207669A1 (TIANJIN MEDICAL UNIVERSITY GENERAL HOSPITAL, published 2026).

T1: human BAFFR overexpressed on 293T cells (human, UniProt Q96RJ3 1-184)
T1 construct: whole, on cells
T1 sequence (looked up): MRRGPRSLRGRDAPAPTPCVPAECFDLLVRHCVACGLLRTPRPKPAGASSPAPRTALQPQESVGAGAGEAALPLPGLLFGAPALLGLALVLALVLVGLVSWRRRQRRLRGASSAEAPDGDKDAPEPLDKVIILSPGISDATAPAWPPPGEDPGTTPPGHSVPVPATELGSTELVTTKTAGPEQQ


What follows are binders tested against T1, human BAFFR overexpressed on 293T cells (assay: flow cytometry on HEK-293T-BAFFR cells, anti-human Fc-647 secondary antibody).
Description: The cells were resuspended in a suitable volume of staining solution for flow cytometry, so that the final cell concentration per tube reached 2×10⁵ cells/mL.
The antibodies NB467-7, NB467-71, and NB467-88 produced in Example 1 and the control antibody were diluted to 200 nM, respectively. […] After incubation, the cells were washed once with a FACS buffer.
The anti-human FC-647 secondary antibody (Jackson, 109-605-003) was diluted according to the instructions, and 100 μL of the diluted secondary antibody was added to a sample tube. After uniform mixing, the system was incubated at 4° C. for 60 min. After incubation, the cells were washed 3 times with FACS, and the cell precipitate obtained by centrifugation was resuspended in 200 μL of PBS and detected by flow cytometry (Sony, SA3800).

| EC50 | Binder |
| --- | --- |
| 1.31 nM | NB467-88 (Fc fusion, also called anti-BAFFR nanobody NB467-88; antibody NB467-88; not shown: Human IgG1 Fc fused to the VHH) EVQVVESGGGLVQPGGSLRLSCAASGFRLNYYAIGWFRQAPGKEREGVSCISSGGDRIYYADSVKGRFTISRDNAKNTVYLQMNSLKPEDTAVYYCAADLYYSGSYYYRSCNPAESGYWGQGTQVTVSS |
| 6.73 nM | NB467-7 (Fc fusion, also called anti-BAFFR nanobody NB467-7; antibody NB467-7; not shown: Human IgG1 Fc fused to the VHH) QVQLVESGGGSVHPGGSLRLSCAGSGFTLAGYAIGWFRQAPGKEREGVSCINSSGGSTYYADSVKGRFTISRDNAKNTVYLQMNSLKPEDTAVYYCAADVYYSGSYLYRSCNPTESKYWGQGTQVTVSS |
| 10.6 nM | NB467-71 (Fc fusion, also called anti-BAFFR nanobody NB467-71; antibody NB467-71; not shown: Human IgG1 Fc fused to the VHH) EVQVVESGGGLVQSGGSLRLSCVASGFNLDHYAIGWFRQIPGKEREGVSCISSGGDSTFYIDSVKGRFTISRDNAKNTVYLQMNSLKPEDTAVYHCAADVYYSGNYLYRSCNPHESKYWGQGTQVTVSS |
